Results taken from patent US20040166099A1 (TOLERRX, published 2004).

Molecular target: protein kinase C theta (human, UniProt Q04759 1-706)
Experiment: cell-based or functional assay

Sequence of protein kinase C theta (Q04759 whole entry): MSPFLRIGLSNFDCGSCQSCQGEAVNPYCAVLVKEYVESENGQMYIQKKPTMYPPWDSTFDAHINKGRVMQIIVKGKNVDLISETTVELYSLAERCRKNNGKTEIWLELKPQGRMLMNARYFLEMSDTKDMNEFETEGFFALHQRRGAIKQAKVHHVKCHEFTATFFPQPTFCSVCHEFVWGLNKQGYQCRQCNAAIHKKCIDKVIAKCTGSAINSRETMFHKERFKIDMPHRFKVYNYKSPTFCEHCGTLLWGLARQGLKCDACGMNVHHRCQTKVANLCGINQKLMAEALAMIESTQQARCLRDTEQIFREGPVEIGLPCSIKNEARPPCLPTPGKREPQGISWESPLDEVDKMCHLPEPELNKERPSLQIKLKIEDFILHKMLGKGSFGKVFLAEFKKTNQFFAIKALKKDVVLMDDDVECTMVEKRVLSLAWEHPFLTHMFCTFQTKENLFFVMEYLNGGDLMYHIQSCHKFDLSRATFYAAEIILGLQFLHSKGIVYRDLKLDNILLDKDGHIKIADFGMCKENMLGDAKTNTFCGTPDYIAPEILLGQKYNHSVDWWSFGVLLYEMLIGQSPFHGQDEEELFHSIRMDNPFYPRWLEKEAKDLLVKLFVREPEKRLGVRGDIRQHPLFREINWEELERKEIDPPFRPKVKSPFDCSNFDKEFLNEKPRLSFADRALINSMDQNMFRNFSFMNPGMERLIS

proliferation (3H-thymidine incorporation) of Th1 and Th2 cells stimulated with CD3 and CD28, relative to no inhibitor: 16 % of control levels
B1: antennapedia-PKC theta peptide (peptide)
peptide: RQIKIWFQNRRMKWKKMDQNMFRNFSFNMP
